Test system: MS2 coat protein
Assay: apparent KD of MS2 coat protein; higher = weaker reporter binding
Conditions: Eterna round: R107
Outline: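 Apparent KD stands for the median, per design, of fits to normalised cluster binding curves. The curves came from titrating on-chip-transcribed RNA switches on Illumina sequencing clusters with SNAP-549-labelled MS2 coat protein, twofold from 0.7 or 1.5 nM to 3 µM. Buffer was 100 mM Tris-HCl pH 7.5, 80 mM KCl, 4 mM MgCl2, without or with constant ligand.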

[1] = input ligand: theophylline 20 uM
[2] = input ligand: tryptophan 2.4 mM
[3] = input ligand: theophylline 2 mM

Sequence	apparent KD of MS2 coat protein (input ligand: arginine 13.2 mM)	apparent KD of MS2 coat protein [1]	apparent KD of MS2 coat protein [2]	apparent KD of MS2 coat protein [3]	apparent KD of MS2 coat protein (input ligand: none)
UCAUUUGAGUGAGAUGUAAGGUAUCAUGAUACCAGUAGAUAAUUAUACCCUUGGCAGCAUGACAUGAGGAUCACCCAUGUACAUG [Ad]	9.28 nM	11.1 nM	12.3 nM	–	–
UCCACACAUGAGGAUCACCCAUGUUGAGAUACCAGUAAACCAAAAUACCCUUGGCAGCUCCUACGCUCUUACAGCGGGAAUAUCC [theeternabot_sameState_MS2_Theo_A_46]	14.3 nM	19.5 nM	14.9 nM	–	–
UCCCUACCGUCGGCCGCCACUGGGUCAUACAGUUCGUAACUACAUGAGGAUCACCCAUGUGCAGCCAGGACCGGGACGCGCCUUG [theeternabot_sameState_MS2_Trp_B_16]	30.2 nM	153 nM	–	148 nM	–
UCCUGCAGAGCGGCCGCCACUGUGUUGCGUGAGGAUGACCCAACAUGAGGAUCACCCAUGUUGUUUAGGACCGGGCUUGCCUCGA [xcmulliny]	12 nM	17.2 nM	–	15.5 nM	–
UCGGGCAGAGCGGCCGCCACUGUUUGGCAUGCGGAUGACGGAACAUGAGGAUCACCCAUGUUGAUUAGGACCGGGCUUGCGGAGA [eefullin]	11.6 nM	42.3 nM	37 nM	25.1 nM	18.9 nM
UCGGGCAGAGCGGCCGCCACUGUUUGGCGUGCGGAUGACGGAACAUGAGGAUCACCCAUGUUGUUUAGGACCGGGCUUGCGGCGU [ipimullin]	12.1 nM	16.7 nM	12.1 nM	14 nM	12.7 nM
UCGUAGGUAGGAAGGAGCGCAUACUUCACAUGAGGAUCACCCAUGUCGAGACGUGAGUCAGUGCAGGUAGGUCGCCUAGCUAUGA [Same State - Arginine B (Freestyle 25)]	18.2 nM	35.7 nM	18.7 nM	28.3 nM	26 nM
UCGUAGGUAGGAAGGAGCGCAUACUUCACAUGAGGAUCACCCAUGUCGAGACGUGAGUCAGUGCAGGUAGGUCGCCUAGUUAUGA [Same State - Arginine B (Freestyle 24)]	19.6 nM	36.2 nM	29.2 nM	40.2 nM	41.1 nM
UCGUCCUCCGCAAGGAGGAGGAGUUGCGAUACCAGCACGGUAACGUGCCCUUGGCAGCGCACAUGAGGAUCACCCAUGUGGUGUU [#1 Exclusion - Theophylline A Attempt #13 (HarryS)]	59.3 nM	425 nM	188 nM	–	–
UCGUGUAUAUCGGAUACCAGUGAAAUCGAUACAUGAGGAUCACCCAUGUGAGUUGAUGUACACCCUUGGCAGCUGUAUAUAUCUA [snbullin]	15 nM	18.1 nM	15.3 nM	–	–
UCGUGUAUAUCGGAUACCAGUGAGAACGAUACAUGAGGAUCACCCAUGUGAGUUGAUGUACACCCUUGGCAGCUGUAUAUAUCUA [gghullin]	18.9 nM	27 nM	20 nM	–	–
UCUACAUGAGGAUCACCCAUGUGCCAUGAUACCAGACAUGAAAAUGUCCCUUGGCAGCGUGGGUAGCGCAUCCGAAAGGAUGCGC [#08 SameState-TheophyllineA]	1370 nM	240 nM	20.5 nM	1310 nM	702 nM
UCUCACAUGAGGAUCACCCAUGUGUGCGGUCGAGGACCGGUACGGCCGCCACUCGAAUCCUUCCGCGAGAAGAUUGUACGACGGC [theeternabot_sameState_MS2_Trp_A_38]	28.3 nM	74.4 nM	–	99.9 nM	–
UCUUUCUUUGUAGAUACCAGCAUGUUAAGUUUCUUUUGACAUGAGGAUCACCCAUGUACAUGCCCUUGGCAGCUACAUUUUCUUU [SSThB NP+V+V2 Same Structure]	15.6 nM	16.3 nM	15.4 nM	–	–
UGACAUUGCUCAGAUACCAGACGUGAGGAUCACCCACGUGCCAACAAGUACAUAAUAAAUGUCCCUUGGCAGCUGAGCAAUGUCU [TheoBX 17 #MS2Left #Theo2 #AlternativeMS2]	16.4 nM	15.2 nM	10.9 nM	15.1 nM	11.2 nM
UGAGUUAGACAAAAGUCUAGCUCUGGUGAAGGAGCGUCCGAAAGGACAGGUAGGUCGCACCACAUGAGCAUCAGCCAUGUUCCUU [ArgAS 23 #OpenEnded #AlternativeMS2]	17.9 nM	26.9 nM	16.8 nM	17.8 nM	17.3 nM
UGAUACACGGGAAGGAGCGACAGGGAUAAGUCCGCACGGGCCGCACAUGAGGAUCACCCAUGUCAGGUAGGUCGCCCGUGGCGUG [Erxemarima]	13 nM	19.6 nM	12.9 nM	16 nM	13.5 nM
UGAUCCUGCAGGGAUACCAGCGCCGCUAGAUAACUAUGCACAUGAGGAUCACCCAUGUAACGCCCUUGGCAGCCCAACUAAAGGG [Same State Theophylline B GF21]	28.9 nM	41 nM	35.2 nM	26.7 nM	39.9 nM
